Columns and labels:
[1] = target: human CSF-1 receptor full-length ectodomain, domains D1-D5 (hCSF-1R_(D1-D5)) (human) (UniProt P07333); assay: SAXS
[2] = target: mouse CSF-1 receptor full-length ectodomain, domains D1-D5 (mCSF-1R_(D1-D5)) (mouse) (UniProt P09581); assay: ITC
[3] = target: human CSF-1 receptor full-length ectodomain, domains D1-D5 (hCSF-1R_(D1-D5)) (human) (UniProt P07333); assay: ITC
Target sequence in this assay (P07333 20-517): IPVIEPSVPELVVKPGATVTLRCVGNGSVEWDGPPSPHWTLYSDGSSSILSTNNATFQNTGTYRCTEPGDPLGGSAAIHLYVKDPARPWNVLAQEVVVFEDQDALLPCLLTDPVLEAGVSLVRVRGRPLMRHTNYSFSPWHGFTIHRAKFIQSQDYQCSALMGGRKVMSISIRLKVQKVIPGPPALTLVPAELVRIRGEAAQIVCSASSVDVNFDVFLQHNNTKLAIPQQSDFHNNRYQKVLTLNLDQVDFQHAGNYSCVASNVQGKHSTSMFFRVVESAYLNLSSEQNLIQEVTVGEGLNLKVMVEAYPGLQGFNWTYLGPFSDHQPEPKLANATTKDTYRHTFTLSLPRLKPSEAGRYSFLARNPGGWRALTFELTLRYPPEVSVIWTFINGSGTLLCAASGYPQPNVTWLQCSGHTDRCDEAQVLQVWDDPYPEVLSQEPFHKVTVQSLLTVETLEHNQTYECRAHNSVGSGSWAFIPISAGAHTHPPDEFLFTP

[4] = target: human Colony Stimulating Factor-1 (hCSF-1), residues 1-149 (human); assay: field-flow fractionation
[5] = target: human CSF-1 receptor full-length ectodomain, domains D1-D5 (hCSF-1R_(D1-D5)) (human) (UniProt P07333); assay: field-flow fractionation
Target sequence in this assay (P07333 20-517): as above

[6] = target: mouse CSF-1 receptor, first three extracellular domains (mCSF-1R_(D1-D3)) (mouse) (UniProt P09581); assay: ITC
Sequence of mouse CSF-1 receptor, first three extracellular domains (mCSF-1R_(D1-D3)) (mouse) (P09581 20-298): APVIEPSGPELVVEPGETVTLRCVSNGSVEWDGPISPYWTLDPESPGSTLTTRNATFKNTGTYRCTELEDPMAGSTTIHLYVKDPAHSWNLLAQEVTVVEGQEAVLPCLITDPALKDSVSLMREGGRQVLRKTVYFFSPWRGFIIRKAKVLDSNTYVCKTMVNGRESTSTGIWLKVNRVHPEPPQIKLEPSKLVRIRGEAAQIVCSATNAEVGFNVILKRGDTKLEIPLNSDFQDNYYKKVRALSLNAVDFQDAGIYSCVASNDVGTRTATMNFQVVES

Sequence of mouse CSF-1 receptor full-length ectodomain, domains D1-D5 (mCSF-1R_(D1-D5)) (mouse) (P09581 20-515): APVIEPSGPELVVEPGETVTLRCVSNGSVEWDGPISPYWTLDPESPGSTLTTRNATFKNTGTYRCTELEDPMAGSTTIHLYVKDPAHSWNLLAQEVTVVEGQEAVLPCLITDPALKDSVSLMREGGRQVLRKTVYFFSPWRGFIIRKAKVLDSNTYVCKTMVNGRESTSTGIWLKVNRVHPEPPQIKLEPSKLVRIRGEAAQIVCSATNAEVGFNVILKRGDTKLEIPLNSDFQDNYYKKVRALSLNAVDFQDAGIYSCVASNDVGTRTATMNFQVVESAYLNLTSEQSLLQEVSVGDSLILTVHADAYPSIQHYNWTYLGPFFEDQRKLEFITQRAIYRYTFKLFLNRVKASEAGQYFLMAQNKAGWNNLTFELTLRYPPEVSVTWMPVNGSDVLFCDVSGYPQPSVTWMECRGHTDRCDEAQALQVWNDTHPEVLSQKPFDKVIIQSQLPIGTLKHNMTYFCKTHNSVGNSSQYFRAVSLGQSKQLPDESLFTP

Row | Substance | stoichiometry N [1] | Kd [2] | stoichiometry N (CSF-1 dimer per receptor) [2] | Kd [3] | stoichiometry N (CSF-1 dimer per receptor) [3] | stoichiometry N [4] | stoichiometry N (CSF-1 dimer per receptor) [5] | stoichiometry N (CSF-1 dimer per receptor) [6]
1 | human CSF-1 receptor full-length ectodomain, domains D1-D5 (hCSF-1R_(D1-D5)) (from UniProt P07333 20-517) | 2 |  |  |  |  |  |  | 
2 | human Colony Stimulating Factor-1 (hCSF-1), residues 1-149 (ligand) |  | 66.2 nM | 0.5 | 13.6 nM | 0.5 | 2 | 0.5 | 
3 | mouse Colony Stimulating Factor-1 (mCSF-1), residues 1-149 (ligand) |  | 21.7 nM | 0.5 | 2800 nM | 0.5 |  |  | 0.5

Source: article PMC3260422
